Paper PMC11417369, “DNA sequence and chromatin differentiate sequence-specific transcription factor binding in the human malaria parasite Plasmodium falciparum”

B1: CACACA_negctrl_site676 (dsDNA)
DNA 1: TATTTATTGTGATACTTATATTACTTAATGATTAAA
DNA 2: TTTAATCATTAAGTAATATAAGTATCACAATAAATA
B2: CACACA_site4405 (dsDNA)
DNA 1: TATATATATCTGTACACACACACATATAAATAAATA
DNA 2: TATTTATTTATATGTGTGTGTGTACAGATATATATA
B3: CACACA_site5303 (dsDNA)
DNA 1: CCCCCCCACGGACACACACACATACATACCACATAT
DNA 2: ATATGTGGTATGTATGTGTGTGTGTCCGTGGGGGGG
B4: CACACA_negctrl_site149 (dsDNA)
DNA 1: TCTTATTCAAACGTAAAACGAAGAAGAAAAAAAAAA
DNA 2: TTTTTTTTTTCTTCTTCGTTTTACGTTTGAATAAGA
B5: CACACA_negctrl_site1463 (dsDNA)
DNA 1: TGTTTCTGCTCTGGACATTTTTAAAAAAGGGAAAGC
DNA 2: GCTTTCCCTTTTTTAAAAATGTCCAGAGCAGAAACA
B6: CACACA_site8115 (dsDNA)
DNA 1: AGAAAATACACGCATACACACACACCCACCCACATA
DNA 2: TATGTGGGTGGGTGTGTGTGTATGCGTGTATTTTCT
B7: CACACA_negctrl_site1507 (dsDNA)
DNA 1: TCTTTAAATCGAGTGTTAAATAATATAATATAAAAA
DNA 2: TTTTTATATTATATTATTTAACACTCGATTTAAAGA
B8: CACACA_site2302 (dsDNA)
DNA 1: GACATATTCCCCCCCACACACACACCCACATACATA
DNA 2: TATGTATGTGGGTGTGTGTGTGGGGGGGAATATGTC
B9: CACACA_negctrl_site1047 (dsDNA)
DNA 1: TTCACATGAAGAATTAAAATAAAACTAGGAAATTAA
DNA 2: TTAATTTCCTAGTTTTATTTTAATTCTTCATGTGAA
B10: CACACA_site6304 (dsDNA)
DNA 1: CACACGCACGAACACACACACACACGCGCACATATA
DNA 2: TATATGTGCGCGTGTGTGTGTGTGTTCGTGCGTGTG
B11: CACACA_site5283 (dsDNA)
DNA 1: AATATAAATAAAAACACACACACACCGATATATATA
DNA 2: TATATATATCGGTGTGTGTGTGTTTTTATTTATATT
B12: CACACA_site4111 (dsDNA)
DNA 1: CCCCCCGTGTTATATACACACATAATCAAATAAAAT
DNA 2: ATTTTATTTGATTATGTGTGTATATAACACGGGGGG
B13: CACACA_site8058 (dsDNA)
DNA 1: AACATACATAAACACACACACACACCCACACCCACA
DNA 2: TGTGGGTGTGGGTGTGTGTGTGTGTTTATGTATGTT
B14: CACACA_site1716 (dsDNA)
DNA 1: GGGGGGGGAGGGTGAATACACACGTAATAATCATAA
DNA 2: TTATGATTATTACGTGTGTATTCACCCTCCCCCCCC
B15: CACACA_site8688 (dsDNA)
DNA 1: AAAACACGCGGACACACACACACACCCACCCATATA
DNA 2: TATATGGGTGGGTGTGTGTGTGTGTCCGCGTGTTTT
B16: CACACA_site6310 (dsDNA)
DNA 1: ATACATCAAGGACACACACACACACGCACACGCACA
DNA 2: TGTGCGTGTGCGTGTGTGTGTGTGTCCTTGATGTAT
B17: CACACA_negctrl_site1587 (dsDNA)
DNA 1: TTATAATATAAAAATAAATAAATAAATAAATAAATA
DNA 2: TATTTATTTATTTATTTATTTATTTTTATATTATAA
B18: CACACA_negctrl_site12 (dsDNA)
DNA 1: TTCTTCTAATCCTTTTATCTCATTAAAAAAATATAA
DNA 2: TTATATTTTTTTAATGAGATAAAAGGATTAGAAGAA
B19: CACACA_negctrl_site189 (dsDNA)
DNA 1: AAGTTTATTATATATAAATTATTATATATATATATA
DNA 2: TATATATATATATAATAATTTATATATAATAAACTT
B20: CACACA_site8849 (dsDNA)
DNA 1: AAAAAAAAAAAACACACACACACACCGATACATACA
DNA 2: TGTATGTATCGGTGTGTGTGTGTGTTTTTTTTTTTT
B21: CACACA_site6551 (dsDNA)
DNA 1: ATAAAAAGGAGACACACACACACACGCATATTTATA
DNA 2: TATAAATATGCGTGTGTGTGTGTGTCTCCTTTTTAT
B22: CACACA_site6387 (dsDNA)
DNA 1: TTAACAAATAGACACACACACACACGCAAAAAAAAA
DNA 2: TTTTTTTTTGCGTGTGTGTGTGTGTCTATTTGTTAA
B23: CACACA_site7288 (dsDNA)
DNA 1: AAAAAAAAAAAAAACACACACACACGCACATATACA
DNA 2: TGTATATGTGCGTGTGTGTGTGTTTTTTTTTTTTTT
B24: CACACA_site372 (dsDNA)
DNA 1: AAGCATACATCAAGCACACACACACCCACACCCACA
DNA 2: TGTGGGTGTGGGTGTGTGTGTGCTTGATGTATGCTT
B25: CACACA_site6254 (dsDNA)
DNA 1: TATTTATTAAGACACACACACACACGCACAAAATAA
DNA 2: TTATTTTGTGCGTGTGTGTGTGTGTCTTAATAAATA
B26: CACACA_site1515 (dsDNA)
DNA 1: AGTACAGACATAGACACACACACACCCATAAAAAAA
DNA 2: TTTTTTTATGGGTGTGTGTGTGTCTATGTCTGTACT
B27: CACACA_site2826 (dsDNA)
DNA 1: AGATATAAGAAAAGCACACACACACCCAAAAAAAAA
DNA 2: TTTTTTTTTGGGTGTGTGTGTGCTTTTCTTATATCT
B28: CACACA_site3848 (dsDNA)
DNA 1: ATAAAACAAAAACACACACACATACACAAAAAAAAA
DNA 2: TTTTTTTTTGTGTATGTGTGTGTGTTTTTGTTTTAT
B29: CACACA_site8824 (dsDNA)
DNA 1: GATAATTATGGACACACACACACACCCACAACTAAA
DNA 2: TTTAGTTGTGGGTGTGTGTGTGTGTCCATAATTATC
B30: CACACA_site2623 (dsDNA)
DNA 1: TAATAAATAAATGACACACACACACCCAAAAAAAAA
DNA 2: TTTTTTTTTGGGTGTGTGTGTGTCATTTATTTATTA

Each binder was assayed against T1, PF3D7_0420300 D1 (Plasmodium falciparum, UniProt Q8I1N6 1956-2015) (assay: gcPBM; about 25 ug protein; PBS, 1% milk, 0.2 mg/ml BSA, salmon testes DNA, 0.03% Triton X-100). Conditions: tags: N-terminal GST (pGEX-4T-1), kept; label: surface-attached array probe.
T1 sequence: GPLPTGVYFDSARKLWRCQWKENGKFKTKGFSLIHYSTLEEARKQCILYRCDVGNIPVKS

| Binder | binding signal |
| --- | --- |
| B1 | 9.03 ln median PBM intensity, better of two orientations |
| B2 | 10 ln median PBM intensity, better of two orientations |
| B3 | 11 ln median PBM intensity, better of two orientations |
| B4 | 8.92 ln median PBM intensity, better of two orientations |
| B5 | 8.94 ln median PBM intensity, better of two orientations |
| B6 | 10.6 ln median PBM intensity, better of two orientations |
| B7 | 9 ln median PBM intensity, better of two orientations |
| B8 | 10.9 ln median PBM intensity, better of two orientations |
| B9 | 9.06 ln median PBM intensity, better of two orientations |
| B10 | 10.4 ln median PBM intensity, better of two orientations |
| B11 | 10.3 ln median PBM intensity, better of two orientations |
| B12 | 10.8 ln median PBM intensity, better of two orientations |
| B13 | 10.4 ln median PBM intensity, better of two orientations |
| B14 | 10.5 ln median PBM intensity, better of two orientations |
| B15 | 10.6 ln median PBM intensity, better of two orientations |
| B16 | 10.4 ln median PBM intensity, better of two orientations |
| B17 | 9.04 ln median PBM intensity, better of two orientations |
| B18 | 8.97 ln median PBM intensity, better of two orientations |
| B19 | 9.02 ln median PBM intensity, better of two orientations |

The binders below were run against T2, AP2-HC D1 (Plasmodium falciparum, UniProt Q8IKR9 1316-1374) in the same assay as above. Conditions: tags: N-terminal GST (pGEX-4T-1), kept; label: surface-attached array probe.
T2 sequence: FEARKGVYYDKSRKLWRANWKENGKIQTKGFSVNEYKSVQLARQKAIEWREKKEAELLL

| Binder | binding signal |
| --- | --- |
| B20 | 12 ln median PBM intensity, better of two orientations |
| B21 | 12 ln median PBM intensity, better of two orientations |
| B22 | 12 ln median PBM intensity, better of two orientations |
| B23 | 11.9 ln median PBM intensity, better of two orientations |
| B24 | 11.9 ln median PBM intensity, better of two orientations |
| B25 | 12.1 ln median PBM intensity, better of two orientations |
| B26 | 12.1 ln median PBM intensity, better of two orientations |
| B27 | 12.1 ln median PBM intensity, better of two orientations |
| B28 | 12.2 ln median PBM intensity, better of two orientations |
| B29 | 12 ln median PBM intensity, better of two orientations |
| B30 | 12.1 ln median PBM intensity, better of two orientations |

The binders below were run against T3, AP2-LT D1 (Plasmodium falciparum, UniProt Q8IAM1 2520-2577) in the same assay as above. Conditions: tags: N-terminal GST (pGEX-4T-1), kept; label: surface-attached array probe.
T3 sequence: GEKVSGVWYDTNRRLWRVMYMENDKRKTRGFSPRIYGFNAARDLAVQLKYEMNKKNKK

| Binder | binding signal |
| --- | --- |
| B1 | 8.81 ln median PBM intensity, better of two orientations |
| B2 | 10.1 ln median PBM intensity, better of two orientations |
| B3 | 11.2 ln median PBM intensity, better of two orientations |
| B4 | 8.7 ln median PBM intensity, better of two orientations |
| B5 | 8.66 ln median PBM intensity, better of two orientations |
| B6 | 10.7 ln median PBM intensity, better of two orientations |
| B7 | 8.73 ln median PBM intensity, better of two orientations |
| B8 | 10.9 ln median PBM intensity, better of two orientations |
| B9 | 8.81 ln median PBM intensity, better of two orientations |
| B10 | 10.7 ln median PBM intensity, better of two orientations |
| B11 | 10.3 ln median PBM intensity, better of two orientations |
| B12 | 10.8 ln median PBM intensity, better of two orientations |
| B13 | 10.6 ln median PBM intensity, better of two orientations |
| B14 | 10 ln median PBM intensity, better of two orientations |
| B15 | 10.7 ln median PBM intensity, better of two orientations |
| B16 | 10.6 ln median PBM intensity, better of two orientations |
| B17 | 8.74 ln median PBM intensity, better of two orientations |
| B18 | 8.51 ln median PBM intensity, better of two orientations |
| B19 | 8.75 ln median PBM intensity, better of two orientations |
